From patent US20240425603A1

Experiments:
[1] = target: human VEGFR2, over-expressed on HEK293 cells (human) (UniProt P35968); assay: flow cytometry, HEK cells over-expressing human VEGFR2
[2] = target: human VEGFR3, over-expressed on K562 cells (human) (UniProt P35916); assay: flow cytometry, K562 cells over-expressing human VEGFR3
[3] = target: Recombinant mouse VEGFR1-Fc (R&D Systems) (mouse) (UniProt P35969); assay: MSD ECL competition on plate-bound mouse VEGFR1-Fc; competitor biotin PlGF (2 nM)
Sequence of Recombinant mouse VEGFR1-Fc (R&D Systems) (mouse) (P35969 27-759 limits assumed): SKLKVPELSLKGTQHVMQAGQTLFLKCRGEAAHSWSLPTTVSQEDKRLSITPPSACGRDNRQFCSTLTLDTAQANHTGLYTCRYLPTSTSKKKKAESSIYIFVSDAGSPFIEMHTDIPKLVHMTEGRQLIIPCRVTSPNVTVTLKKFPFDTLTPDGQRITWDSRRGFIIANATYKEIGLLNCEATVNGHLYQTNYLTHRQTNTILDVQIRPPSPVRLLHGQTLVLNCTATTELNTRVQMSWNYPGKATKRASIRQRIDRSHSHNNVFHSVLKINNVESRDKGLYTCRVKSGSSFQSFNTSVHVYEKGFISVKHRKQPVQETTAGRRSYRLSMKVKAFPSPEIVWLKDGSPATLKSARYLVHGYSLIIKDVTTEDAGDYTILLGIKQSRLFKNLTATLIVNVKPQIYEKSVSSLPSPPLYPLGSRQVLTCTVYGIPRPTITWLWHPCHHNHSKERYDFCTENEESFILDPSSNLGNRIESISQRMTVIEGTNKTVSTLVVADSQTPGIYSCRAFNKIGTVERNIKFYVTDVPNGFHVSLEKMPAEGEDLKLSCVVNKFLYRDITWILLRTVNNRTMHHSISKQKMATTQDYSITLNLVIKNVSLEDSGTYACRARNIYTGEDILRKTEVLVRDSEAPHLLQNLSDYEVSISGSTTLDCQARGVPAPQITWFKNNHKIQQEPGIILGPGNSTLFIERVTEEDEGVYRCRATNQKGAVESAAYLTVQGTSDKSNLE

Sequence of human VEGFR2, over-expressed on HEK293 cells (human) (P35968 20-1356): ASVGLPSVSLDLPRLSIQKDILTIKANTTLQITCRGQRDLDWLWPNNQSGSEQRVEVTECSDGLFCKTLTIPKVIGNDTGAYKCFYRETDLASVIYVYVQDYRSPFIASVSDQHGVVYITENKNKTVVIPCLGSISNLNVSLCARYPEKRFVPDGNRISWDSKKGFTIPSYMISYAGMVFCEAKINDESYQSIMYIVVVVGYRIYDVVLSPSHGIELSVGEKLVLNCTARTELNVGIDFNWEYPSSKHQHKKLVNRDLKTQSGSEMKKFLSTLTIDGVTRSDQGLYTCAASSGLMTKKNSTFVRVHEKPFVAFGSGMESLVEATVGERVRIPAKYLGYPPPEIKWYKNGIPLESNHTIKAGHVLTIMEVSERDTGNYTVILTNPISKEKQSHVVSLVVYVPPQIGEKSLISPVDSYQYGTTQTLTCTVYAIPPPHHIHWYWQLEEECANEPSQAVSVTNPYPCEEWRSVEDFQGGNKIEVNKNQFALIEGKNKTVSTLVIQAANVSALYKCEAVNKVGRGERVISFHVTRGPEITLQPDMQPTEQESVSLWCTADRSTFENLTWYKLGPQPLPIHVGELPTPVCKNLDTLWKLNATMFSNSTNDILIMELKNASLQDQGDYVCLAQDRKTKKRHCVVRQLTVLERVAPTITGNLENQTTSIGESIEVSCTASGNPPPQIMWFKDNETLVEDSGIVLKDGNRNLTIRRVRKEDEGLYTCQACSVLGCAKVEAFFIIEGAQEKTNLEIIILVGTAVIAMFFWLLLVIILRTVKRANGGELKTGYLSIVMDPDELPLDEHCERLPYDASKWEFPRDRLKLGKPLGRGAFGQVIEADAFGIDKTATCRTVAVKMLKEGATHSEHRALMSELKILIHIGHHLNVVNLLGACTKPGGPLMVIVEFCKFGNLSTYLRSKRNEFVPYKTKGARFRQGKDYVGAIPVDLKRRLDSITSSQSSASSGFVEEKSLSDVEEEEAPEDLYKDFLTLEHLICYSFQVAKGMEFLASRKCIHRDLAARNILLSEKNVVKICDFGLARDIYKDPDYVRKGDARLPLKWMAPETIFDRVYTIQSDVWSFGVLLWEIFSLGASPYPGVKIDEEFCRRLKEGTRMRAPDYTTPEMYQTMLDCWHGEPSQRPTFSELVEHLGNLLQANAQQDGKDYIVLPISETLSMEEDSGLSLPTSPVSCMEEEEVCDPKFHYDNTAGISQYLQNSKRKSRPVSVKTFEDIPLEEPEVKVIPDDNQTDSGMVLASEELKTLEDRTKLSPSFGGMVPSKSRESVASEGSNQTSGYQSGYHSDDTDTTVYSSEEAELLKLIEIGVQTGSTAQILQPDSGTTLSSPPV
Sequence of human VEGFR3, over-expressed on K562 cells (human) (P35916 25-1363): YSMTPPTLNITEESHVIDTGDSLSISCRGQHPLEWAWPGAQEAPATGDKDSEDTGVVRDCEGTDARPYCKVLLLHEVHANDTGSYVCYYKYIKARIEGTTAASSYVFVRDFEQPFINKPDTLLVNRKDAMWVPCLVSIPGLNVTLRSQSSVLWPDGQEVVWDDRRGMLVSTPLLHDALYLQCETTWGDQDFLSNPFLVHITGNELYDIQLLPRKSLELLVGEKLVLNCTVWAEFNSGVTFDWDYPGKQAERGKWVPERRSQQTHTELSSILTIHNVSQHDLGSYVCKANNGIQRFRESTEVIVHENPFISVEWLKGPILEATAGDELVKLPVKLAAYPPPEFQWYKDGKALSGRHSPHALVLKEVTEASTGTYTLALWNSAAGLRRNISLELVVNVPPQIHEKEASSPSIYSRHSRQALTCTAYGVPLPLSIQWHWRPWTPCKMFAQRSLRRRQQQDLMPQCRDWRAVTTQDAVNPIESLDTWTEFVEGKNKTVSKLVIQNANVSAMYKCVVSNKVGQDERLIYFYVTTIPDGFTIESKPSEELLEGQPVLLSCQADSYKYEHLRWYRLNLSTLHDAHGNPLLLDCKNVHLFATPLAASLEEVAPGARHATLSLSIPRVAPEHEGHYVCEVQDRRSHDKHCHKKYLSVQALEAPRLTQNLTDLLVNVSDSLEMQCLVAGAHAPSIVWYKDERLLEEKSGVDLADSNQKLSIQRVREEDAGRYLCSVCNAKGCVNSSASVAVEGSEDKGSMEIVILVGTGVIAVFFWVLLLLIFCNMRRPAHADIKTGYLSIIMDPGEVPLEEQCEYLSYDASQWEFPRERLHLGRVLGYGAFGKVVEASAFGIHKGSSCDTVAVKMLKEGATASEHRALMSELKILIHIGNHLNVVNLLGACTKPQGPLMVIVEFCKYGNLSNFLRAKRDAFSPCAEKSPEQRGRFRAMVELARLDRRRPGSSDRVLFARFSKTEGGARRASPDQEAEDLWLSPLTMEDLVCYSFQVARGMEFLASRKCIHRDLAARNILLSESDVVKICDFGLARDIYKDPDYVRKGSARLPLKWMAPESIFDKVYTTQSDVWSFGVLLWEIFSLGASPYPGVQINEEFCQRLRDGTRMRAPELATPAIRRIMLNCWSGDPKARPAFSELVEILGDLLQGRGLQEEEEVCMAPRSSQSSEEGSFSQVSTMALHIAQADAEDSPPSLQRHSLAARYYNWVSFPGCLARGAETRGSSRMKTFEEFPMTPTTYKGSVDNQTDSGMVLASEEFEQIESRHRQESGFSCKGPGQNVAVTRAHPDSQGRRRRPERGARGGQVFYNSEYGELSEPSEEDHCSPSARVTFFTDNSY

Goat anti-human VEGFR2 (R&D Systems Catalog #AF357) (antibody)
Geomean over-expressing/Geomean parental (Fold Signal/Background) [1]: 28 fold

Goat anti-human VEGFR3 (R&D Systems Catalog #AF349) (antibody)
Geomean over-expressing/Geomean parental (Fold Signal/Background) [2]: 132 fold

PlGF as used on mouse VEGFR1 (ligand)
IC50 [3]: 163 pM
Max % Inh. [3]: 100%
